Measurements: patent US20240301062A1

How the values were obtained:
cyno CLDN6 (cyno) = test: flow cytometry, CHOK1/Cyno CLDN6-GFP cells
[1] = target: human claudin 6 (CLDN6) (human) (UniProt P56747); test: flow cytometry, CHOK1/human CLDN6-GFP cells
[2] = target: human claudin 9 (CLDN9) (human) (UniProt O95484); test: flow cytometry, CHOK1/human CLDN9-GFP cells
mouse CLDN6 (mouse) = mouse CLDN6 (mouse) (UniProt Q9Z262); test: flow cytometry, CHOK1/mouse CLDN6-GFP cells
[3] = target: human claudin 6 (CLDN6) (human) (UniProt P56747); test: flow cytometry, PA-1 cells (endogenous CLDN6)

Sequence of human claudin 6 (CLDN6) (human) (P56747 whole entry): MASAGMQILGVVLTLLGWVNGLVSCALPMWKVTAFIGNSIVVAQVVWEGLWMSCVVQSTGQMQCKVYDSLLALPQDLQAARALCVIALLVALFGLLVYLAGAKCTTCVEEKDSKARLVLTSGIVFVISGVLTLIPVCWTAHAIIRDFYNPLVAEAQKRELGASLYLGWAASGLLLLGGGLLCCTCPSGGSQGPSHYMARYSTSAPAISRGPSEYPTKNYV
Sequence of mouse CLDN6 (mouse) (Q9Z262 whole entry): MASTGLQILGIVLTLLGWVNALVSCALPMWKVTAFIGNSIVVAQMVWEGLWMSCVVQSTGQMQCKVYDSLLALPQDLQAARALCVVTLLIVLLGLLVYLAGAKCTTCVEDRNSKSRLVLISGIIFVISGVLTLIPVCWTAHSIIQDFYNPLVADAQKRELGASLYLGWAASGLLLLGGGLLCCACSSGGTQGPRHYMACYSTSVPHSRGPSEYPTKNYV
Sequence of human claudin 9 (CLDN9) (human) (O95484 whole entry): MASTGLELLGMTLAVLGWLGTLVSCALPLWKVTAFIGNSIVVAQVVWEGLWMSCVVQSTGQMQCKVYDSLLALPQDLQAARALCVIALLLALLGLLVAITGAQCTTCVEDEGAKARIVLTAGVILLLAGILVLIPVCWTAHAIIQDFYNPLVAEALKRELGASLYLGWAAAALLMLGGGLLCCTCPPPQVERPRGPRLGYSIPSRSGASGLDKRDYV

- Emax (MFI) (cyno CLDN6 (cyno)): 225 MFI
- Emax (MFI) [1]: 31.1 MFI
- Emax (MFI) [2]: 26.9 MFI
- Emax (MFI) (mouse CLDN6 (mouse)): 41.8 MFI
- Emax (MFI) [3]: 34 MFI
Substance: Human IgG1 isotype Ctrl. (antibody)
